Data from PMC6960015.

Target: GST-ArhGAP12 ΔNΔP R582A (mouse (NIH 3T3 cDNA library)) (UniProt S4R248)
Assay: BLI

- fold reduction of binding affinity against wild type: 1300 fold
Substance: Rabbit skeletal muscle LatB-actin (from UniProt P68135 1-377) (natural protein)
